30 sequences from the supplement of paper PMC9732359 can be followed below.

The data set can be described thus: protein stability index of a GFP-peptide fusion (yeast GPS) (PSI 1-4); higher = more stable; sorted into four equal gates, so the index is relative within each strain. The gist of the method: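 Yeast carrying a pooled library were grown to mid-log phase in leucine-free medium. Each library plasmid expresses Cherry and has a tiled 17-residue yeast protein peptide fused downstream of GFP. Cells were sorted into four equal gates by GFP/Cherry ratio, and plasmids from each gate were PCR-amplified, Illumina-sequenced and assigned to strains by barcode. Summing, across gates, the read frequency times the gate number gave each peptide's protein stability index.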

± gives the uncertainty stated by the source.

For the sequence KDLVEIKKEEGKIDEAA [RPN5], the protein stability index (ubr1∆) was 3.62 ± 0.22.
As for KDQLPDLESMGLTQLYK [MED7], the protein stability index runs as follows: (doa10∆) 2.85 ± 0.07; (pdr5∆) 3.08 ± 0.071; (san1∆) 2.87 ± 0.077; (ubr1∆) 3.13 ± 0.069.
For KDRISHEVVQDDSFSLL [PCI8], the protein stability index stood at 3.19 ± 0.082 (doa10∆), 3.46 ± 0.071 (pdr5∆), 3.19 ± 0.056 (san1∆) and 3.05 ± 0.075 (ubr1∆).
In the same order, the values of KDSNKDVVVEGLRRARY [RPL10] are 3.26 ± 0.097, 3.34 ± 0.071, 3.38 ± 0.072 and 3.38 ± 0.058.
Turning to KDSSLNYSSESYRNAFT [YJL039C/NUP192], the protein stability index was 2.89 ± 0.06 (doa10∆), 2.32 ± 0.064 (pdr5∆), 2.02 ± 0.069 (san1∆) and 2.85 ± 0.047 (ubr1∆).
With KEDHPLEFYKDKFFNEV [SIR3], the protein stability index stood at 3.21 ± 0.086 (doa10∆), 3.2 ± 0.05 (pdr5∆), 3.34 ± 0.055 (san1∆) and 3.43 ± 0.084 (ubr1∆).
On to KEILDNILPFLWGPHGL [ECM29], for which the protein stability index was determined as 2.67 ± 0.24 (doa10∆), 3.09 ± 0.24 (pdr5∆) and 3.37 ± 0.17 (ubr1∆).
KEIYYTPDPSELAAKEE [FAS2]: the protein stability index runs as follows: (doa10∆) 2.631 ± 0.023; (pdr5∆) 2.748 ± 0.023; (san1∆) 2.601 ± 0.024; (ubr1∆) 2.531 ± 0.017.
KEKEKEREEAEKKRAEQ [MED2] gave a protein stability index (san1∆) of 2.75 ± 0.28.
On to KEKIKNNRQLPYLVANV [RPT5], for which the protein stability index turned out to be 2.78 ± 0.1 (doa10∆), 3.1 ± 0.095 (pdr5∆), 3.11 ± 0.096 (san1∆) and 2.64 ± 0.081 (ubr1∆).
In turn, KELAELKVQKLSRPSLP [RPL35A] came in with a protein stability index (doa10∆) of 2.56 ± 0.045, a protein stability index (pdr5∆) of 2.92 ± 0.052, a protein stability index (san1∆) of 2.5 ± 0.061 and a protein stability index (ubr1∆) of 2.74 ± 0.048.
On to KELENNLERLRSDLQSK [YIL149C/MLP2], for which the protein stability index reads like this: (doa10∆) 3.17 ± 0.062; (pdr5∆) 3.3 ± 0.094; (san1∆) 3.05 ± 0.068; (ubr1∆) 3.2 ± 0.053.
In the case of KELESIDVLLEQTTGGN [RPB4], the protein stability index (ubr1∆) was 3.22 ± 0.26.
On the same count and under the same terms, then KERIVRAFLIEEQKIVK [RPL34B], with 2.74 ± 0.12.
For KERLTKEAAAIAEGKSK [RPL8B], the protein stability index (doa10∆) turned out to be 2.19 ± 0.05, the protein stability index (pdr5∆) amounted to 2.33 ± 0.056, the protein stability index (san1∆) turned out to be 2.02 ± 0.073 and the protein stability index (ubr1∆) came out at 2.38 ± 0.033.
In the same order, the values of KETIARVTGGMKVKADR [RPS14A] are 3.29 ± 0.11, 3.13 ± 0.12, 3.31 ± 0.062 and 3.27 ± 0.073.
The corresponding values for KETQQYELEFDTPTSGK [BRR2] are 2.99 ± 0.05, 2.98 ± 0.055, 3.05 ± 0.041 and 3.08 ± 0.045.
The corresponding values for KEVLPDLQNLNLNTDKL [YJL039C/NUP192] are 3.38 ± 0.1, 2.94 ± 0.098, 3.25 ± 0.097 and 2.64 ± 0.085.
Consider KFDSRIRGILMASGSTT [PRP8], for which the protein stability index (doa10∆) came to 2.44 ± 0.084, the protein stability index (pdr5∆) was determined as 2.18 ± 0.11, the protein stability index (san1∆) stood at 2.06 ± 0.12 and the protein stability index (ubr1∆) amounted to 2.19 ± 0.13.
Take KFENDELAESTTTKIID [LRP1]: the protein stability index is, setting by setting: (doa10∆) 2.04 ± 0.13; (pdr5∆) 2.47 ± 0.12; (san1∆) 2.23 ± 0.086; (ubr1∆) 2.27 ± 0.053.
The corresponding values for KFFQKKIHLYEKKLEDY [YGL172W/NUP49] are 2.83 ± 0.093, 2.75 ± 0.089, 2.71 ± 0.071 and 2.94 ± 0.089.
Consider KFKLLNGLAIRRAAYGV [RPS3], for which the protein stability index (doa10∆) was found to be 2 ± 0.046, the protein stability index (pdr5∆) is 2.15 ± 0.047, the protein stability index (san1∆) was determined as 1.88 ± 0.062 and the protein stability index (ubr1∆) came out at 1.86 ± 0.048.
As for KFMTNSTAFVPTIEYVQ [ARP9], the protein stability index reads like this: (doa10∆) 2.22 ± 0.062; (pdr5∆) 2.65 ± 0.048; (san1∆) 2.83 ± 0.076; (ubr1∆) 2.62 ± 0.041.
Turning to KFPTRKIYMLYSLQPSV [RPC34], the protein stability index (pdr5∆) stood at 2.13 ± 0.23.
Turning to KFRSSILRKSFDFLMNM [RPN2], the protein stability index by setting is: (doa10∆) 2.1 ± 0.13; (pdr5∆) 2.4 ± 0.1; (san1∆) 2.04 ± 0.12; (ubr1∆) 2.4 ± 0.072.
The corresponding values for KFSLPFEQKGSQTTTND [YLR335W/NUP2] are 3.25 ± 0.1, 3.08 ± 0.1, 3.11 ± 0.099 and 3.09 ± 0.094.
In the same order, the values of KFSSRHGQKGVCGIIVK [RET1] are 3.56 ± 0.095, 3.51 ± 0.092, 3.71 ± 0.051 and 3.14 ± 0.12.
In the same order, the values of KGHKFNNTKAGRRKTWK [RPL15A] are 2.79 ± 0.063, 2.93 ± 0.081, 2.8 ± 0.093 and 3.1 ± 0.1.
For the sequence KGKYRNRRWTQRRGPLV [RPL4A], the protein stability index was 2.97 ± 0.17 (doa10∆) and 3.29 ± 0.18 (pdr5∆).
KGSSLASAASEAIRDPK [SSN8] displayed a protein stability index (doa10∆) of 2.43 ± 0.053, a protein stability index (pdr5∆) of 2.62 ± 0.063, a protein stability index (san1∆) of 2.65 ± 0.065 and a protein stability index (ubr1∆) of 2.99 ± 0.049.
